Experiments:
crystal structure = target: the molecule itself; assay: crystal structure
[1] = target: T1, TPST2ΔC18 (38 kDa core domain of human tyrosylprotein sulfotransferase-2, Gly43–Leu359) (human, UniProt O60704 43-359); assay: crystal structure
T1 sequence (looked up): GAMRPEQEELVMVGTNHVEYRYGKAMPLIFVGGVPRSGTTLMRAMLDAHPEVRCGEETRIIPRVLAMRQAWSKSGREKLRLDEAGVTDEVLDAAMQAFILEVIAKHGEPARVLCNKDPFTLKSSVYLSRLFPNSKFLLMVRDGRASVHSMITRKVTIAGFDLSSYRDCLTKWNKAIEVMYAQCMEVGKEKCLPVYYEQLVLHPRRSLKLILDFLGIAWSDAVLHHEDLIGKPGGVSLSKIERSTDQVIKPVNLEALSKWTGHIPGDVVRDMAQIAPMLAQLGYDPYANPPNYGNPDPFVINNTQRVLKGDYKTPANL

Binder	binding result (crystal structure)	binding result [1]
TPST2 (proposed catalytic domain of human tyrosylprotein sulfotransferase-2, Gly43-Ser377) (domain or fragment, UniProt O60704 43-377, looked up) GAMRPEQEELVMVGTNHVEYRYGKAMPLIFVGGVPRSGTTLMRAMLDAHPEVRCGEETRIIPRVLAMRQAWSKSGREKLRLDEAGVTDEVLDAAMQAFILEVIAKHGEPARVLCNKDPFTLKSSVYLSRLFPNSKFLLMVRDGRASVHSMITRKVTIAGFDLSSYRDCLTKWNKAIEVMYAQCMEVGKEKCLPVYYEQLVLHPRRSLKLILDFLGIAWSDAVLHHEDLIGKPGGVSLSKIERSTDQVIKPVNLEALSKWTGHIPGDVVRDMAQIAPMLAQLGYDPYANPPNYGNPDPFVINNTQRVLKGDYKTPANLKGYFQVNQNSTSSHLGSS	binds	
EDFEDYEFD [C4P5Y3 peptide (substrate peptide derived from human complement C4)]		binds
